From a protein production outcome set (Wang et al. 2014)

Test: label from the status in PepcDB records

With “MRVASDAGDAETLLAAVPANQRVAIVDARFVGHLHALRLGLTDPRFEAAALAGAVSAQPGARQALTRALARESSAATGGATVVMDNLAERITAALDADGVQVHRPDLGTLVAAVPADPQARNEVRQAVTAVDDEAVRLRTAVKSRDGFFTTHFISPYSRYLARWCARRGLTPNQVTTASLLTALVAAGCAATGTRAGFVAAGLLLLFSFVLDCADGQLARYSLQYSTLGAWLDATFDRAKEYAYYAGLALGAARGGDDVWALALGAMVLQSCRHIVDFSFNEANHDATANTSPTAALSDKLDSVGWTVWLRRMIVLPIGERWAMIAVLTALTTPRITFYALLIGCAFAATYTTAGRVLRSLTRKARRTDRAAQALADLTDSGPLAEFLTRFARRLRLRGPACVALVTGALVVLAAALAPYGSWWPVLAAVTYVLLSPVALLKPLKGALDWLVPPFYRAAEYGTVLVLAAKADVNGALPAAFGLVAAVAYHHYDTVYRIRGNAGAPPHWLVRAIGGHEGRTLLVTVLAALLVPTDFKVALTALAVAVALVVLVESIRFWVSSQAPAVHDEGEPA” the protein production was “failed”.
With “MRVDLNSDLGESFGRYKLGLDEEVMKYITSANVACGWHAGDPLVMRKTVRLAKENDVQVGAHPGYPDLMGFGRRYMKLTPEEARNYILYQVGALYAFAKAEGLELQHVKPHGALYNAMVKEEDLARAVIEGILDFDKDLILVTLSNSRVADIAEEMGLKVAHEVFADRAYNPDGTLVPRGRPGAVIEDKEEIAERVISMVKDGGIRAINGEWVDLKVDTICVHGDNPKAVEITSYIRKVLEEEGVKIVPMKEFIR” the protein production was “not failed”.
For “MRVFFSTLAGLALALAAGGAVASGLGDADKGREVFRQCAFCHAVGEGAENGIGPHLNGVFGRAAGRIEGVQYSKSMIRMGNDGLIWTAQTLDAYIENPRALVSKTRMSFRGIKNEQERSDLMAYLRRYSDDPGNIPEAEPTATGTDHDLDPVILAIQGDPEYGEYLASECKTCHQTSGANDGIPGITQWPTEDFVVAMHAYKRKLRPHPVMQMMAGRLSNDEIAALAAYFQDLE”, the protein production was “failed”.
In the case of “MRVFLLLFLLFPVLELFLLVRVGMSIGFLWTFLLVVATSMLGLFVMRVAGFATALRARESLARGELPAQEMLEGLMVAVGGGLLLLPGFISDILGVICLLPITRRLLISKVRRRAEDQAMRQRAFADDLQTQANQGPASHRPNAIHQPTREPDVIEGEFEHRDK”, the protein production is reported as “failed”.
For “MRVFPVYAPKLIVKHARIFLTGVIWVKDLGRLEFEKGRFLLPRKSLPKVKQAILELNELIEAQNHQTKTALEHHHHHH”, the protein production was “not failed”.
For “MRVISGEYGGRRLKALDGDNTRPTTDKVKESIFNMIGPYFDGGMALDLYSGSGGLAIEAVSRGMDKSICIEKNFAALKVIKENIAITKEPEKFEVRKMDANRALEQFYEEKLQFDLVLLDPPYAKQEIVSQLEKMLERQLLTNEAVIVCETDKTVKLPETIGTLKKTRETVYGITQVTIYRQEA”, the protein production was “not failed”.
With “MRVLFIGDVFGQPGRRVLQNHLPTIRPQFDFVIVNMENSAGGFGMHRDAARGALEAGAGCLTLGNHAWHHKDIYPMLSEDTYPIVRPLNYADPGTPGVGWRTFDVNGEKLTVVNLLGRVFMEAVDNPFRTMDALLERDDLGTVFVDFHAEATSEKEAMGWHLAGRVAAVIGTHTHVPTADTRILKGGTAYQTDAGFTGPHDSIIGSAIEGPLQRFLTERPHRYGVAEGRAELNGVALHFEGGKATAAERYRFIED” the protein production was “not failed”.
In the case of “MRVLILGSGVIGTTSAWYLSKAGCEVVVVDRQSGAGLETSYANGGQLSFGYTSPWAAPGVPLKAVRWLFERHAPLSIRPTTDWNQYVWLARMLRHCSAERYAVNKSRMLRLSEYSREALEALSAETGITFEGRRLGTIQLFRTQQQLDGAVRDIELLTQYGIPYEVLSPHQLAKFEPGLADGSVRFVGALRLPHDQTGDCCLFTQRLAALAAKRGVEFRYGCTVQRLEVDGPRVTGAWINGALERADCCVVALGSYSPLLLAPLGLRLPVYPLKGFSLTLPMIDASRAPVSTVLDESYKVAVTRFDERIRVAGMAEVSGYDVSLNPRRRSTLEMVVQDVYPGCGDLGRGEFWTGLRPATPDGTPVIGATPYQGLFLNTGHGTLGWTMSSGSGRYLADLICCRPCEISSEGLDMFRYLVSTIPCPQECAPCVPPTP”, the protein production is reported as “failed”.
For “MRVLKKFFSGDNLLERVLILIVGLVASLILVIKSADLFVDNLVDLGSSLGISEVILGVTASAIGTSLPEFGSALIASLSGSTDIGVGCVIGSNIWNIAGILGISSVVAGIIETNADGLKRDFSATLVTGLILLFFMFFGNIGKIAALVMVLTYAVYLWRLIKAQKTYSDENSGKNEREPLDLKKLALTVVGFAGLVIGCRILVYTGVELADIAGIPAMIMGLFTLAIGTSIPELVVTLSSAVKGLHELSIGTVLGSNTFNILVGIGVPALIAPVPVERLSLTFDAPVMILVTVLLVLLIRQGDMKLKRTGGIVLLAVYISYVIMRLFVLA”, the protein production was “failed”.
In the case of “MRVPALKPILLQLHSVAGLVLAAVLVLVALTGAVMSFEDEIRGALDAGRVQLAPHAGSRMPLDALIAKLQAGGDPVASITMPRSAASAAEVRFARKPDHTRPAPLYLDPYTGESLGHPAADAFFATVRKLHRWLLLPGDGNGYGRTITGVAALGLLAMLLTGLVLRWPHRPGSIKVWLKPHWQLRGRGLHRSLHAVIGTWVLLLYLIMTLTGLWWSFDWYKTAATWLLARSPVTMQPPNRAAVTAAPSAAISLDRVWATLVAERGDRFEAARLTLPSGREGTVRVRAWLTDARDGAHDEFRIDGRSGQVLSADIYADKTIGEKVLARVLDIHRGSIFGWPGQLLFMLAAAAMPLFGVTGVLLYLSRRRHQRMQRAARAKVG”, the protein production is reported as “failed”.
For “MRVTHFFMAAIAVVFVLAGCSTMPKKPDSLTRGDYGYTKEYVSWLIKKEMRENDVTGLSIALVDDQRVVWAQGFGVADEANKVPATPDTIYRVGSISKLFTATAVLQLAEQGKMDIDKPLSTYLPEFSVKSRFPDAGPITPRTLMTHHSGLPSDFLKGMWTNNPEPISNVVNLLKDEYAQYPPNFVFSYSNLGVSLLGNAVERIAGRPYASQIDETVLHPLGMASSSFSTHSDVASRLAKGYRNGKEIGEPQLRDIPAGGLHTNVLDLSRFMEMVFAGGKAGERRILKEETLAEMLSPQNDGVPLDHDFHIGLGWLLTDVGIENAGKVAWHDGATLLYRSQMVILPEQKLGVVVLSNSATAASVVHKVATEALKLAMEAKAGIRQPERSKPVEREADLSPEERQKLAGAYVTPFGTVKVIESGTTLRTEFFGKTFSVVPRNDGRMGLRYRLLGVIPISLGDLDYLGFSTSTVSGHNVLLATAAGKSMLVGEKMEPVLVSEQWQRRVGAYEIANPGDDTMLVDDIRLRYEDGFLRVDYALPLFFDGKLNVSLQPLSDTEAVIRGLGRGMGETIRVVAVNGEEMLQYSGYLLKKKRE”, the protein production was “failed”.
With “MRVVVISSFVSVSLQLSFLLLLASAIRSSSSPPNDPFLGISPQDEKYYKSSSEIKCKDGSKKFTKAQLNDDFCDCSDGTDEPGTSACPTGKFYCRNAGHSPVILFSSRVNDGICDCCDGSDEYDGHVSCQNTCWEAGKAARENLKKKIETYNQGLVIRRQEIEQAKVGLEKDAAELKKLKSEQKILKGLVDQLKDRKEQIEKVEEKERLQKEKEEKEKKEAELAAQQGKGDAEEKTDDSEKVEESSHDEGTPAVSQHDETTHHDEIGNYKDYPSDEEPAAEGEPTSILDEATHTNPADEHVVERKEESTSSEDSSSPTDESQNDGSAEKEESDEVKKVEDFVTEKKEELSKEELGRLVASRWTGEKSDKPTEADDIPKADDQENHEHTPITAHEADEDDGFVSDGDEDTSDDGKYSDHEPEDDSYEEEYRHDSSSSYKSDADDDVDFSETTSNPTWLEKIQKTVKNILLAVNLFQTTPVDKSEADRVRKEYDESSSKLNKIQSRISSLEKKLKQDFGPEKEFYSFHGRCFESKQGKYTYKVCAYKEATQEEGYSKTRLGEWDKFENSYQFMSYTNGEKCWNGPDRSLKVKLRCGLKNELMDVDEPSRCEYAAILSTPARCLEDKLKELQQKLEKLMNQDKPQNHDEL” the protein production was “failed”.
For “MRWNICVVGAGKIGQMIAALLKTSSNYSVTVADHDLAALAVLNRMGVATKQVDAKDEAGLAKALGGFDAVISAAPFFLTPIIAKAAKAAGAHYFDLTEDVAATNAVRALAEDSQTAFMPQCGLAPGFVGIAGAALAAEFDEIDSLHMRVGALPLYPTNALKYNLTWSTDG”, the protein production was “failed”.
For “MRYGFMKVAAAVPFVKVADCEYNIERIDRMVHEADAKGVEIMTFPELSITGYSCGDLFFQPFLQERANEALCRLVEQTANTTVMVIVGMPLRVEEKLFNSAVVFQQGKILGAIPKTYLPNYREFQEARWFSPAHTLQYSTISIGQHSVPIGRNLIFKCGTVGVGIEICEDMWTPFTPGTRLCLYGAEVIFNLSSSNENAGKHSYLRSLISGLSSQGICAYVYASSGYGESSTDIVFTGKAFIAEAGEIVEEMERFRYEERMIISDIDVSRIQTERLINSSFKA”, the protein production was “failed”.
With “MRYSIYLCILFVLSILSCNSKQEDRVIESFYVRKDDLGRNVSISVNPKRILSLTPSITELVYTFSDTSRLIGRSVWCDYPAGVKVIPAVNNYPLDIEGVVRLKPDLILVKQGMISVQELDKLEQLHLAVYVQKYDLLNEIYASTKTLVEITKGDSATYKHWLTSMQSDTMHTSVQHAKTCLAVTSVSPIYVFGKTTFVSELIEQAGGKNCVETIQSAYPTVDVEYILRANPDVFIFNSTDQQKLFFETYPLLKQCKGYITNQLFVIDDSIMSRPGIRLPILKDSLVSILSK” the protein production was “failed”.
With “MSAALPSIQLPVDYNNLFNEITDFLVTFKQDTLSSDATRNENEDENLDAENIEQHLLEKGPKYMAMLQKVANRELNSVIIDLDDILQYQNEKFLQGTQADDLVSAIQQNANHFTELFCRAIDNNMPLPTKEIDYKDDVLDVILNQRRLRNERMLSDRTNEIRSENLMDTTMDPPSSMNDALREVVEDETELFPPNLTRRYFLYFKPLSQNCARRYRKKAISSKPLSVRQIKGDFLGQLITVRGIITRVSDVKPAVEVIAYTCDQCGYEVFQEVNSRTFTPLSECTSEECSQNQTKGQLFMSTRASKFSAFQECKIQELSQQVPVGHIPRSLNIHVNGTLVRSLSPGDIVDVTGIFLPAPYTGFKALKAGLLTETYLEAQFVRQHKKKFASFSLTSDVEERVMELITSGDVYNRLAKSIAPEIYGNLDVKKALLLLLVGGVDKRVGDGMKIRGDINVCLMGDPGVAKSQLLKAICKISPRGVYTTGKGSSGVGLTAAVMKDPVTDEMILEGGALVLADNGICCIDEFDKMDESDRTAIHEVMEQQTISISKAVINTNPGARTSILAAANPLYGRINPRLSPLDNINLPAALLSRFDILFLMLDIPSRDDDEKLAEHVTYVHMHNKQPDLDFTPVEPSKMREYIAYAKTKRPVMSEAVNDYVVQAYIRLRQDSKREMDSKFSFGQATPRTLLGIIRLSQALAKLRLADMVDIDDVEEALRLVRVSKESLYQETNKSKEDESPTTKIFTIIKKMLQETGKNTLSYENIVKTVRLRGFTMLQLSNCIQEYSYLNVWHLINEGNTLKFVDDGTMDTDQEDSLVSTPKLAPQTTASANVSAQDSDIDLQDA” the protein production was “failed”.
In the case of “MSADLKQSRLADWRQRALAFEREVGKAVIGLERPIRHILIAVFARGHVMLEGDVGVGKTTLLRAVARCLGGAYERVEGTIDLMPNDLVYHTYINELGKPQVEPGPVLKHGEELSVFFFNEVNRARPQVHSLLLRIMAEHAVSAFNREHFFPYLQVFADRNRVEKEETFEIPSAARDRFMMELHVETPADPALRRALMFDPKFHDVDRLLDTLTPGILPYREIPQIAPVIQQSVTASETLQQYALDLWEATRRPADYGVKLEGIDMDRLILAGASARGVSMMMRAARVAAWLDGRDYLVPEDIHDVFRETIGHRVFFNPVYELRRTALIDELLHAIRQKVAAPLEHHHHHH”, the protein production is reported as “not failed”.
For “MSAFQAFVVNKTETEFTAGVQTISMDDLPEGDVLVRVHYSSVNYKDGLASIPDGKIVKTYPFVPGIDLAGVVVSSQHPRFREGDEVIATGYEIGVTHFGGYSEYARLHGEWLVPLPKGLTLKEAMAIGTAGFTAALSIHRLEEHGLTPERGPVLVTGATGGVGSLAVSMLAKRGYTVEASTGKAAEHDYLRVLGAKEVLAREDVMAERIRPLDKQRWAAAVDPVGGRTLATVLSRMRYGGAVAVSGLTGGAEVPTTVHPFILRGVSLLGIDSVYCPMDLRLRIWERLAGDLKPDLERIAQEISLAELPQALKRILRGELRGRTVVRLA”, the protein production was “not failed”.
